Source: patent US20210221875A1 (Chugai, published 2021)

Biological target: T1, Human aggrecan G1-IGD-G2 domain with Flag-tag on its C-terminus (human, UniProt P16112 17-675)
T1 construct: used unlabelled as Biacore analyte; also called human aggrecan G1-IGD-G2-Flag; human Aggrecan G1G2 flag
Assay: BLI (Octet RED), biotin-labeled human aggrecan G1-IGD-G2-Flag on streptavidin sensor, 27 C

binding result: binds
B1: hA2R3p.038-G1mISHI01/VK1.39-k0MT (antibody, human IgG1, kappa, V domains shown)
VH: QLQLVESGGGLVQAGGSLRLSCAASGRTFRTYAMGWFRQAPGKEREFVSSISGSGGSKIYADSVKGRFTISRDNAKDTVNLQMNSLKPEDTAVYYCAVARGYYGTMASDPGLYDYWGQGTQVTVSS
VL: DIQMTQSPSSLSASVGDRVTITCRASQSISSYLNWYQQKPGKAPKLLIYAASSLQSGVPSRFSGSGSGTDFTLTISSLQPEDFATYYCLQFDSYPLTFGGGTKVEIKR
